# Experimental data from paper PMC3774140.
# What was measured:
# [1] = molecular target: SKN-1 50 amino acid bait construct encoding the lax188(E237K) mutation (C. elegans); assay: two-hybrid
# [2] = molecular target: SKN-1 50 amino acid bait construct encoding the lax120(S245L) mutation (C. elegans); assay: two-hybrid
substance,measurement,setting,value
PGAM-5 (Y2H prey from the cDNA library) (natural protein),percent decrease of the interaction against the wild-type 50-mer bait,[1],72%
same,percent decrease of the interaction against the wild-type 50-mer bait,[2],75%
